Laboratory results published in patent publication EP4628512A1 (Innovent Biologics (Suzhou) Co., Ltd., dated 2025).

Key:
human VEGFC (R&D) [1] = target: T1, human VEGFC (R&D) (human, UniProt P49767 103-227); assay: BLI (ForteBio), bivalent binding, 30 C
T1 construct: also called hVEGFC; recombinant human VEGFC protein
T1 sequence (looked up): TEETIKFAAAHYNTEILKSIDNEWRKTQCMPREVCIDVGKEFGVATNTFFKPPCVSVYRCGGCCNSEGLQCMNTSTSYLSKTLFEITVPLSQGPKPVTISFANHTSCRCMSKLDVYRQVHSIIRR

[2] = target: T2, human Ang2 (Beijing Sino Biological) (human, UniProt O15123 19-496, limits assumed); assay: BLI (ForteBio), bivalent binding, 30 C
T2 construct: Antigen of the BLI and SPR experiments; also called angiopoietin 2; ANGPT2
T2 sequence (looked up): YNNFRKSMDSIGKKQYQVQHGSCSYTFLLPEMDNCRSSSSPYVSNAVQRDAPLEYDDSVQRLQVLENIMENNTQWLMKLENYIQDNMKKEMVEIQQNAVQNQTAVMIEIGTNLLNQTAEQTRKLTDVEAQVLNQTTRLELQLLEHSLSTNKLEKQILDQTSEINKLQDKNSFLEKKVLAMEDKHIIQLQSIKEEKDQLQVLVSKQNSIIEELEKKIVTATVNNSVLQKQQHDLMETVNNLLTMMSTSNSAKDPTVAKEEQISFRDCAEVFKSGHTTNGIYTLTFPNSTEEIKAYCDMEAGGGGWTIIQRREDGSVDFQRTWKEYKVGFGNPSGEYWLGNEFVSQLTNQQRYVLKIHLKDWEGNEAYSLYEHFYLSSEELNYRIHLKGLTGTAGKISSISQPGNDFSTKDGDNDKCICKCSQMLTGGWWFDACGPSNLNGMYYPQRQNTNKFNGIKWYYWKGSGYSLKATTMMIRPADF

human VEGF165 (R&D) [3] = target: T3, human VEGF165 (R&D) (human, UniProt P15692-4 27-191); assay: BLI (ForteBio), bivalent binding, 30 C
T3 construct: also called VEGFA; human VEGFA
T3 sequence (P15692 other isoform, or with tags, fused parts or gaps limits assumed): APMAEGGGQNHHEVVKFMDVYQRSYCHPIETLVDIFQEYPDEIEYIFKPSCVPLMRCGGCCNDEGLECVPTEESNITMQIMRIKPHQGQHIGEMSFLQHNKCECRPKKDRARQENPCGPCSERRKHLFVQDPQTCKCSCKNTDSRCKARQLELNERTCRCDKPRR

[4] = target: T2, human Ang2 (Beijing Sino Biological); assay: BLI (ForteBio), bivalent binding, 30 C; * beyond the limit of detection
human VEGFC (R&D) [5] = target: T1, human VEGFC (R&D); assay: SPR (Biacore T200), CM5 chip, bivalent binding, 1:1 binding model
[6] = target: T2, human Ang2 (Beijing Sino Biological); assay: as above
human VEGFC (R&D) [7] = target: T1, human VEGFC (R&D); assay: BLI (ForteBio), bivalent binding, 30 C; * beyond the limit of detection
human VEGF165 (R&D) [8] = target: T3, human VEGF165 (R&D); assay: as above
human VEGF165 (R&D) [9] = target: T3, human VEGF165 (R&D); assay: SPR (Biacore T200), CM5 chip, 1:1 binding model

B1: IAR044-030 (other)
chain: EVQLLESGGGLVQPGGSLRLSCAASGFALDYYAIGWFRQAPGKGLEGVSCISSGEGSTYYADSVKGRFTISRDNSKNTVYLQMNSLRAEDTAVYYCATDSRGDDVACEGLRRNEYDYWGQGTLVTVSSGGGGGGGGGGSDTGRPFVEMYSEIPEIIHMTEGRELVIPCRVTSPNITVTLKKFPLDTLIPDGKRIIWDSRKGFIISNATYKEIGLLTCEATVNGHLYKTNYLTHRQTNTIIDVVLSPSHGIELSVGEKLVLNCTARTELNVGIDFNWEYPSSKHQHKKLVNRDLKTQSGSEMKKFLSTLTIDGVTRSDQGLYTCAASSGLMTKKNSTFVRVHEKESKYGPPCPPCPPCGGGGGGGGGGEVQLVESGGGLVQPGGSLRLSCAASGSSFSPYAMGWYRQAPGKQRELVSATSEGGFTLYADSVKGRFTISRDNSKNTVYLQMNSLRAEDTAVYYCYMHWRGSDPENYWGQGTQVTVSS
notes: No Fc; also called anti-VEGFA/VEGFC/Ang2 multi-specific fusion protein
Human VEGFC (R&D) [1]
  Kd: ≤ 1.04 nM
  kon: 193000 M⁻¹ s⁻¹
[2]
  Kd: ≤ 0.206 nM
  kon: 973000 M⁻¹ s⁻¹
Human VEGF165 (R&D) [3]
  Kd: ≤ 0.515 nM
  kon: 389000 M⁻¹ s⁻¹
[4]
  koff: ≤ 0.0002 s⁻¹
Human VEGFC (R&D) [5]
  Kd: < 0.234 nM
  koff: < 1e-05 s⁻¹
  kon: 42800 M⁻¹ s⁻¹
[6]
  Kd: 0.00932 nM
  koff: 1.76e-05 s⁻¹
  kon: 1.89e+06 M⁻¹ s⁻¹
Human VEGFC (R&D) [7]
  koff: ≤ 0.0002 s⁻¹
Human VEGF165 (R&D) [8]
  koff: ≤ 0.0002 s⁻¹
Human VEGF165 (R&D) [9]
  Kd: 0.151 nM
  koff: 6.01e-05 s⁻¹
  kon: 399000 M⁻¹ s⁻¹

B2: IAR044-039 (other)
chain: SDTGRPFVEMYSEIPEIIHMTEGRELVIPCRVTSPNITVTLKKFPLDTLIPDGKRIIWDSRKGFIISNATYKEIGLLTCEATVNGHLYKTNYLTHRQTNTIIDVVLSPSHGIELSVGEKLVLNCTARTELNVGIDFNWEYPSSKHQHKKLVNRDLKTQSGSEMKKFLSTLTIDGVTRSDQGLYTCAASSGLMTKKNSTFVRVHEKESKYGPPCPPCPPCGGGGGGGGGGEVQLLESGGGLVQPGGSLRLSCAASGFALDYYAIGWFRQAPGKGLEGVSCISSGEGSTYYADSVKGRFTISRDNSKNTVYLQMNSLRAEDTAVYYCATDSRGDDVACEGLRRNEYDYWGQGTLVTVSSGGGGGGGGGGEVQLVESGGGLVQPGGSLRLSCAASGSSFSPYAMGWYRQAPGKQRELVSATSEGGFTLYADSVKGRFTISRDNSKNTVYLQMNSLRAEDTAVYYCYMHWRGSDPENYWGQGTQVTVSS
notes: Trispecific fusion protein: VEGFA mini-Trap, hinge linker, anti-Ang2 VHH, linker, anti-VEGFC VHH
Human VEGFC (R&D) [1]
  Kd: 1.01 nM
  koff: 0.000227 s⁻¹
  kon: 225000 M⁻¹ s⁻¹
[2]
  Kd: 0.705 nM
  koff: 0.000427 s⁻¹
  kon: 606000 M⁻¹ s⁻¹
Human VEGF165 (R&D) [3]
  Kd: 0.582 nM
  koff: 0.000272 s⁻¹
  kon: 468000 M⁻¹ s⁻¹

B3: IAR044-040 (other)
chain: SDTGRPFVEMYSEIPEIIHMTEGRELVIPCRVTSPNITVTLKKFPLDTLIPDGKRIIWDSRKGFIISNATYKEIGLLTCEATVNGHLYKTNYLTHRQTNTIIDVVLSPSHGIELSVGEKLVLNCTARTELNVGIDFNWEYPSSKHQHKKLVNRDLKTQSGSEMKKFLSTLTIDGVTRSDQGLYTCAASSGLMTKKNSTFVRVHEKEKTHTCPPCPPCGGGGGGGGGGEVQLLESGGGLVQPGGSLRLSCAASGFALDYYAIGWFRQAPGKGLEGVSCISSGEGSTYYADSVKGRFTISRDNSKNTVYLQMNSLRAEDTAVYYCATDSRGDDVACEGLRRNEYDYWGQGTLVTVSSGGGGGGGGGGEVQLVESGGGLVQPGGSLRLSCAASGSSFSPYAMGWYRQAPGKQRELVSATSEGGFTLYADSVKGRFTISRDNSKNTVYLQMNSLRAEDTAVYYCYMHWRGSDPENYWGQGTQVTVSS
notes: as for B2
Human VEGFC (R&D) [1]
  Kd: 0.885 nM
  koff: 0.000209 s⁻¹
  kon: 236000 M⁻¹ s⁻¹
[2]
  Kd: 0.783 nM
  koff: 0.00051 s⁻¹
  kon: 652000 M⁻¹ s⁻¹
Human VEGF165 (R&D) [3]
  Kd: 0.609 nM
  koff: 0.000293 s⁻¹
  kon: 481000 M⁻¹ s⁻¹

B4: IAR044-032 (other)
chain: EVQLLESGGGLVQPGGSLRLSCAASGFALDYYAIGWFRQAPGKGLEGVSCISSGEGSTYYADSVKGRFTISRDNSKNTVYLQMNSLRAEDTAVYYCATDSRGDDVACEGLRRNEYDYWGQGTLVTVSSGGGGGGGGGGSDTGRPFVEMYSEIPEIIHMTEGRELVIPCRVTSPNITVTLKKFPLDTLIPDGKRIIWDSRKGFIISNATYKEIGLLTCEATVNGHLYKTNYLTHRQTNTIIDVVLSPSHGIELSVGEKLVLNCTARTELNVGIDFNWEYPSSKHQHKKLVNRDLKTQSGSEMKKFLSTLTIDGVTRSDQGLYTCAASSGLMTKKNSTFVRVHEKEKTHTCPPCPPCGGGGGGGGGGEVQLVESGGGLVQPGGSLRLSCAASGSSFSPYAMGWYRQAPGKQRELVSATSEGGFTLYADSVKGRFTISRDNSKNTVYLQMNSLRAEDTAVYYCYMHWRGSDPENYWGQGTQVTVSS
notes: as for B1
Human VEGFC (R&D) [1]
  Kd: ≤ 1.01 nM
  kon: 197000 M⁻¹ s⁻¹
[2]
  Kd: ≤ 0.22 nM
  kon: 908000 M⁻¹ s⁻¹
Human VEGF165 (R&D) [3]
  Kd: ≤ 0.517 nM
  kon: 387000 M⁻¹ s⁻¹
[4]
  koff: ≤ 0.0002 s⁻¹
Human VEGFC (R&D) [5]
  Kd: < 0.276 nM
  koff: < 1e-05 s⁻¹
  kon: 36200 M⁻¹ s⁻¹
[6]
  Kd: 0.012 nM
  koff: 1.92e-05 s⁻¹
  kon: 1.63e+06 M⁻¹ s⁻¹
Human VEGFC (R&D) [7]
  koff: ≤ 0.0002 s⁻¹
Human VEGF165 (R&D) [8]
  koff: ≤ 0.0002 s⁻¹
Human VEGF165 (R&D) [9]
  Kd: 0.203 nM
  koff: 7.75e-05 s⁻¹
  kon: 382000 M⁻¹ s⁻¹

B5: IAR044-038 (other)
chain: SDTGRPFVEMYSEIPEIIHMTEGRELVIPCRVTSPNITVTLKKFPLDTLIPDGKRIIWDSRKGFIISNATYKEIGLLTCEATVNGHLYKTNYLTHRQTNTIIDVVLSPSHGIELSVGEKLVLNCTARTELNVGIDFNWEYPSSKHQHKKLVNRDLKTQSGSEMKKFLSTLTIDGVTRSDQGLYTCAASSGLMTKKNSTFVRVHEKEPKSSPPCPPCPAPCGGGGGGGGGGEVQLLESGGGLVQPGGSLRLSCAASGFALDYYAIGWFRQAPGKGLEGVSCISSGEGSTYYADSVKGRFTISRDNSKNTVYLQMNSLRAEDTAVYYCATDSRGDDVACEGLRRNEYDYWGQGTLVTVSSGGGGGGGGGGEVQLVESGGGLVQPGGSLRLSCAASGSSFSPYAMGWYRQAPGKQRELVSATSEGGFTLYADSVKGRFTISRDNSKNTVYLQMNSLRAEDTAVYYCYMHWRGSDPENYWGQGTQVTVSS
notes: as for B2
Human VEGFC (R&D) [1]
  Kd: ≤ 0.92 nM
  kon: 217000 M⁻¹ s⁻¹
[2]
  Kd: 0.475 nM
  koff: 0.000283 s⁻¹
  kon: 597000 M⁻¹ s⁻¹
Human VEGF165 (R&D) [3]
  Kd: 0.668 nM
  koff: 0.0003 s⁻¹
  kon: 450000 M⁻¹ s⁻¹
Human VEGFC (R&D) [7]
  koff: ≤ 0.0002 s⁻¹
